Test results as given in PMC3496063 (Structure (London, England : 1993), 2012).

Target: the molecule itself
Assay: SEC-MALS

B1: His6-Plk4 PB1-PB2 (domain or fragment, D. melanogaster, UniProt O97143 382-602, looked up)
chain: DRISVPPLNTKRLLPTRYKTKNAIMSILRNGEVVLEFLKFRPTYNEDRINDICRISDDGQRIIIYQPDPGRGLPVREQPPDLQIPSGDCVYNYDNLPSKHWKKYIYGARFVGLVKSKTPKVTYFSTLGKCQLMETMTDFEIRFYSGAKLLKTPSEGLKVYDRNGMLLSDYSCSESRSLIEHGNECFTHCVNISNALEVAQTKDNSCFPVTIGRRPITDVQP
stoichiometry N: 2
